One test deals with T1, human MAGEB16 (human, UniProt A2A368 1-324).
T1 construct: whole, on cells; FFPE cell pellets
T1 sequence (looked up): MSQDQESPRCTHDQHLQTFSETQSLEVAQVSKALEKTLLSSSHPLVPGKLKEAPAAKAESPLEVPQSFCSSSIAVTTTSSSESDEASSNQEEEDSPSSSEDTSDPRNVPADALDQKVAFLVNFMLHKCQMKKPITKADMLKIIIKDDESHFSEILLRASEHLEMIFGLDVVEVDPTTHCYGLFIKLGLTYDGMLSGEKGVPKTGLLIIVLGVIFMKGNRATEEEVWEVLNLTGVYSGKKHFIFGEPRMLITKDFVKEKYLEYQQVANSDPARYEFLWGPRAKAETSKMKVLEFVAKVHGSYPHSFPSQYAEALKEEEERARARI
Briefly: IHC, FFPE CHO cells transfected with human MAGEB16. From the text:
(§1) Negative control cells included parental Chinese hamster ovary (CHO) cells, CHO cells stably transfected with mCherry Vector Control (minus Myc/DDK tags), CHO cells stably transfected with mCherry-human DCAF4L2 (plus Myc/DDK tags). The cross-reactivity control cells included CHO cells transfected with mCherry Vector Control (plus Myc/DDK tags) with one of the human MAGE-B or MAGE-A family members (MAGEA1, MAGEA2, MAGEA3, MAGEA4, MAGEA5, MAGEA6, MAGEA8, MAGEA9, MAGEA11, MAGEA12, MAGEB1, MAGEB3, MAGEB4, MAGEB5, MAGEB6, MAGEB10, MAGEB16, MAGEB17, MAGEB18). Positive control cell lines included CHO cells transfected with mCherry Vector (plus Myc/DDK tags) with human MAGE-B2 or CHO cells transfected with mCherry Vector (open reading frame (ORF); minus Myc/DDK tags) with human MAGEB2, and thirteen human cancer cell lines with known endogenous RNA expression level of MAGEB2 (U266B1, T98G, KMM-1, U20S, CFPAC-1, SCaBER, UACC-257, CFPAC-1, VMRC-LCD, NCI-H1703, UM-UC-3, NCI-H1395, NCIH82).
(§2) FFPE samples were sectioned at 4 μm and mounted on positive charged glass slides. After mounting, paraffin sections were air-dried at room temperature. FFPE TMA samples were received as freshly sectioned and mounted on glass slides. The fully automated IHC assay was performed on a Discovery Ultra Stainer (Ventana Medical Systems, Tucson, AZ) using Ventana Anti-Rabbit HQ (cat #760-4815), Ventana Anti-HQ HRP (cat #760-4820), and Ventana Antibody Diluent with Casein (cat #760-219) (Ventana Medical Systems, Tucson, AZ). The slides were baked on the Discovery Ultra Stainer at 60° C. for 8 minutes, de-paraffinized with Ventana Discovery wash (cat #950-510) for 3 cycles (8 minutes each) at 69° C., and underwent cell conditioning (target retrieval) at 95° C. for 16 minutes (for cell arrays) or 32 minutes (tissues or TMAs) in CC1 buffer (cat #950-500). Following this, slides were incubated with Background Sniper (cat #BS966M, Biocare Medical, Pacheco, CA) in a Ventana Option Prep kit (cat #771-751) for 28 minutes, incubated with CM inhibitor (a part of the Ventana DAB kit cat #760-159) for 12 minutes, and incubated for 1 h at RT with MAGE-B2 antibody diluted with Ventana diluent with Casein in a Ventana Prep kit (cat #770-001) (working concentration at 0.1 μg/ml for cell pellet, or 1-5 ug/ml for tissues) or with a matched concentration of isotype control Rabbit IgG1 antibody.

For the next test, the target named is T2, human MAGEA4 (human, UniProt P43358 1-317).
T2 construct: whole, on cells; Transfected into CHO cells with Myc/DDK tags
T2 sequence (looked up): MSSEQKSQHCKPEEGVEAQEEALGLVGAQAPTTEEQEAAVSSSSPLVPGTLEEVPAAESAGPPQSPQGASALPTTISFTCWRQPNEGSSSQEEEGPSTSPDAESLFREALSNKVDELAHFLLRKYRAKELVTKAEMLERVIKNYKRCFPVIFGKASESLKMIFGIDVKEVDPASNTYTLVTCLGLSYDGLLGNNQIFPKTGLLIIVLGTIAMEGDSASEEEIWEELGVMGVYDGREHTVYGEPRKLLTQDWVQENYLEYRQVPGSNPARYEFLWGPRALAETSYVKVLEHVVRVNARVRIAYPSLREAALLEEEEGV
As to the kind of experiment: IHC, FFPE CHO cells transfected with human MAGEA4.
From the text: as §1, §2

Where a chain is given by its changes, count along the chain named.

B1: 1I14 (antibody, V domains shown)
VH: QSVEESGGRLVTPGTPLTLTCTISGFSLSSYAMSWVRQAPGKGLEWIGSIGGGGSAVYASWAKGRFTISKTSTTVDLRITSPTTEDTAMYFCGRGFYSIDLWGPGTLVTVSS
VL: DVVMTQTPASVEATVGGTVTIKCQSSQSVYDNNALAWYQQNAGQRPRLLIYGASTLASGVPSRFSASGSGTEFTLTISDLECADAATYYCQCTYYVSSYQNDFGGGTEVVVKG
notes: also called MAGE-B2 (1i14)
Turning to B1, the binding result in the test with human MAGEB16 and with human MAGEA4 was “no binding (tested: 0.1 µg/ml)” throughout.

B2: 1C3 (antibody, V domains shown)
VH: QSLEESGGGLVQPEGSLTLTCTAFGVTLTNYYICWVRQAPGKGLEWVGCIDNANGRTYYASWAKGRFTISKTSSTTGTLQMTSLTAADTATYFCARSLATPLWGPGTLVTVSS
VL: DIVMTQTPSSVEAAVGGTVTIKCQASQNISSYLAWYQQKPGQPPKLLIYRASTLASGVPSRFKGSGSGTQFTLTISDLECADAATYYCQSYDDSRSSNFFYAFGGGTEVVVKG
notes: also called MAGE-B2 (IC3); anti-MAGEB2 antibody 1C3
Turning to B2, the binding result with human MAGEB16 and with human MAGEA4 was “no binding (tested: 0.1 µg/ml)” in each case.

B3: 4G17 (antibody, IgG1, V domains shown)
VH: B2 VH with F24S, T29S, V47I, A53V
VL: DIVMTQTPASVEAAVGGTVTIKCQASQNIDSYLAWYQQKPGQPPKLLIYRASTLASGVPSRFKGSGSGTEFTLTISDLECADAATYYCQSYDDSRSSSFFYGFGGGTEVVVK
notes: Rabbit monoclonal IgG1; Tested as supernatant and as small batch purified antibody; also called MAGE-B2 (4G17); anti-MAGEB2 antibody 4G17
As for B3, the binding result with human MAGEB16 and in the test with human MAGEA4 was “no binding (tested: 0.1 µg/ml)” throughout.

B4: 1J15 (antibody, IgG1, V domains shown)
VH: B2 VH with V26F, T29N, V47I, G48A, G77V, A99S
VL: B3 VL with N28S, D30S, A34S, K63R, E70Q, R95S, S96D, S97N, S98N, K112R
notes: Rabbit monoclonal IgG1; Tested as supernatant and as small batch purified antibody; also called MAGE-B2 (IJ15); anti-MAGEB2 antibody 1J15
B4: the binding result in the test with human MAGEB16 and in the test with human MAGEA4 was “no binding (tested: 0.1 µg/ml)” in each case.
